Laboratory results as given in patent US20240358834A1 (University of Pennsylvania, published 2024).
Numbering of substitutions follows the chain as printed.

T1: human CD19 protein with a biotinylated AviTag (Acrobiosystems) (human, UniProt P15391 20-291, biotinylated AviTag)
T1 construct: Captured on streptavidin-coated microplate wells; also called biotinylated-AviTag-CD19; hCD19; not shown: AviTag
T1 sequence (looked up): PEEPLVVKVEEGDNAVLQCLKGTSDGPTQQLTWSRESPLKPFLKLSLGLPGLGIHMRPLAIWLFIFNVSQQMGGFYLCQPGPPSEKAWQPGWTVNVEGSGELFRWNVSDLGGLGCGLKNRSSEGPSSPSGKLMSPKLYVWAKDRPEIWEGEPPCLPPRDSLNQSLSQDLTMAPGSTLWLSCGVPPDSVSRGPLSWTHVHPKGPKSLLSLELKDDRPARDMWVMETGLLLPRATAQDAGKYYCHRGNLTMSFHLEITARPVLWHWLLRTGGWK

B1: scFv 28 (scFv)
scFv: QSALTQPSSVSVSLGQTATISCSGESLNKYYVQWFQQKAGQVPILVIYRDTERPSGIPDRFSGSSSGNTHTLTITGTRAEDEADYYCESLVNDNTYVFGSGTQLTVLGGGSSRSSSSGGGGSGGGGEVQLVETGGDLVKPGGSLRLSCVGSGFTFSSYWMSWVRQAPGKGLQWIADISDSGSSTDYADAVKGRFTISRDNAKNTLYLQMNSLRAEDTAMYYCARGLGMDYWGHGTSLFVSSASTTAPSVTSGQAGQHHHHHHGAYPYDVPDYAS
notes: Canine scFv (VL-linker-VH); also called P3-30
B2: scFv 6 (scFv)
scFv: QPVLTQPPSVSGSLGQRVTISCTGTNTNIGSGYSVQWYQQLPGESPKPIIYGSSNRPSGVPARFSGSKSGSTGTLTITGIQAEDEADYHCQSYDDSLDGHAVFGGGTQLTILGGGSSRSSSSGGGGSGGGGEVQLVQSGGDLVKPGGSLRLSCVASGFTFSDNYMSWIRQVPGKGLQWVSRISTDGRGTSYADAVKGRFTISRDNAKNTLYLQMNSLRDEDTAVYYCARRSGIWGFDYWGQGALVTVSSESPSPPNLTSGQAGQHHHHHHGAYPYDVPDYAS
notes: Canine scFv (VL-linker-VH); also called scFv_06; P3-28
B3: scFv 34 (scFv)
scFv: B2 scFv with Q1S, P2Y, V3E, G12A, S13A, Q137E, F158L, A243T
notes: Canine scFv (VL-linker-VH); also called P3-44
B4: scFv 40 (scFv)
scFv: QSVLTQPPSVSGSLGQKVTISCTGSSSSVGTHYVGWYQIPPGIGPRTVIYNNDYRPSGVPDRFSGSKSGNSATLTISGLQAEDEADYYCSSWDDSLGAYVLGSGTQLTILGGGSSRSSSSGGGGSGGGGELTLQESGPGLVKPSQTLSLTCAVSGGSVIRGYYWTWIRQRPGRGLEWMGYWAGSTDYNPAFQGRIFITAGTAKNQFSLEMTSMTTDDTAIYYCVGSLRGGWLFDNWGQGTLVTVSSASTTAPSVTSGQAGQHHHHHHGAYPYDVPDYAS
notes: Canine scFv (VL-linker-VH); also called P3-59B
B5: scFv 35 (scFv)
scFv: SSVLTQPPSVSVSLGQTATISCSGESLSEYYAQWFQQKAGQAPVLVIYKDTERASGIPDRFSGSSSGNTHTLTISGARAEDEADYYCESAVNSDGIVFGGGTHLTVLGGGSSRSSSSGGGGSGGGGEVQLVESGGDLVKPAGSLRLSCVTSGFTFSSYAMSWVRQAPGKGLQWVGSINSGGSTTSYADAVKGRFTISRDNAKNTVYLQMNSLRAEDTAVYYCARWWDFEYWGQGTLVTVSSESPSPPNLTSGQAGQHHHHHHGAYPYDVPDYAS
notes: Canine scFv (VL-linker-VH); also called P4-08
B6: scFv 32 (scFv)
scFv: QSVLTQPASVSVSLGQTATISCSGESLSKYYAQWFQQKAGQAPVLVIYKDTERPSGIPDRFSGSSSGNTHTLTITGIQAADEADYYCQSYDDNLDGYVFGSGTQLTVLGGGSSRSSSSGGGGSGGGGEVQLVESGGDLVKPGGSLRLSCVGSGFTFSSYWMSWVRQAPGKGLQWIADISDSGSSTDYADAVKGRFTISRDNAKNTLYLQMNSLRAEDTAMYYCARGLGMDYWGHGTSLFVSSASTTAPSVTSGQAGQHHHHHHGAYPYDVPDYAS
notes: Canine scFv (VL-linker-VH); also called P4-11
B7: scFv 27 (scFv)
scFv: B6 scFv with S2P, A8P, A80E, A83G, Y86H, Q88H, D92E
notes: Canine scFv (VL-linker-VH); also called P3-18
B8: scFv 30 (scFv)
scFv: B6 scFv with A32T, T75S, I77A, A80E, L94V
notes: Canine scFv (VL-linker-VH); also called P4-02
B9: scFv 36 (scFv)
scFv: QSVLTQPTSVSGSLGQRVTISCSGSTNNIGIVGASWYQQLPGKAPKLLVYSDGDRPSGVPDRFSGSNSGNSDTLTITGLQAEDEADYYCQSFDTTLDAYVFGSGTQLTVLGGGSSRSSSSGGGGSGGGGEEQLVEFGGGLVRPGGSLRLSCVASGFTFSSYGMTWVRQSPGKGLQWVATISDTGSTYYADTVKGRFSISRDNAKNTLYLQMNSLRADDTALYYCTKDLGVWGMDNWGPGTSLFVSSASTTAPSVTSGQAGQHHHHHHGAYPYDVPDYAS
notes: Canine scFv (VL-linker-VH); also called P3-25
B10: scFv 38 (scFv)
scFv: SSVLTQPPSVSVSLGQTATISCSGESLSEYYAQWFQQKAGQAPVLVIYKDTERPSGIPDRFSGSSSGNTHTLTISGARAEDEADYYCASADSSAIPVFGGGTHLTVLGGGSSRSSSSGGGGSGGGGEVQLVESGGDLVKPGGSLRLSCVASGFNFGNYAVSWVRQAPGKGLQWVAGISNDGTITGYTDVVEGRFIISRDNAKNTLYLQMNSLRAEDMAIYYCVAGGFLDYWGQGTLVTVSSASTTAPSVTSGQAGQHHHHHHGAYPYDVPDYAS
notes: Canine scFv (VL-linker-VH); also called P3-17
B11: scFv 33 (scFv)
scFv: DIVMTQTPLSLSVSPGEPASISCKASQSLLHSDGNTYLHWYLQKPGQSPQLLIYSVSNRFTGVSDRFSGSGSGTDFTLRISRVEADDTGVYYCGQGTHLPFTFGQGTKLEIKGGSSRSSSSGGGGSGGGGEVQLVESGGDLVKPGGSLRLSCAASGFTFSHYDMNWVRQAPGKGLQWVASIAYDGSNTYYTDAVKGRFTISRDNAKNILFLLVNSLRAEDTAIYYCARGLVYWGQGTLVTVSSASTTAPSVTSGQAGQHHHHHHGAYPYDVPDYAS
notes: Canine scFv (VL-linker-VH); also called P3-07
B12: scFv 31 (scFv)
scFv: QSALTQPSSVSVSLGQTATISCSGESLTKYYVQWFQQKAGQAPVLVIYRDTERPSGIPDRFSGSSSGNTHTLTISGARAEDEADYYCESMDGREAYVFGSGTQLTVLGGGSSRSSSSGGGGSGGGGEVQLVESGGDLVKPGGSLRLSCVASGFTFSSYWMSWVRQAPGKGLQWIADISDSGSSTDYADAVKGRFTISRDNAKNTLYLQMNSLRAEDTAMYYCARGLGMDYWGHGTSLFVSSASTTAPSVTSGQAGQHHHHHHGAYPYDVPDYAS
notes: Canine scFv (VL-linker-VH); also called P4-09
B13: scFv 37 (scFv)
scFv: SSVLTQPPSVSVSLGQTATISCSGESLNDYYAQWFQQKAGQVPVLVIYRDTERPSGIPDRFSGSSSGNTHTLTISGARAEDEADYYCESEVSAGGAVFGEGTHLTVLGGGSSRSSSSGGGGSGGGGEVQLVETGGDLVKPGGSLRLSCVASGFTLRDYSMTWVRQTPEKGLQLVAGISTGGSTTYYIDAVKGRFTISRDNAKNTVYLQMNSLRAEDTAMYHCTTTALGYWGQGTLVTVSSASTTTPSVTSGQAGQHHHHHHGAYPYDVPDYAS
notes: Canine scFv (VL-linker-VH); also called P3-27
B14: scFv 39 (scFv)
scFv: QSVLTQPPSVSGSPGQRVTISCSGTTKNIGIVGASWYQQLPGKAPKLLVHSDGFRPSGVPDRFSASNSGDSDILTITGLQAEDEADYYCQSFDTTLDAHVFGSGTQLTVLGGGSSRSSSSGGGGSGGGGEVPLVESGGDLVKPGGSLRLSCVASGFTFSSYGMSWVRQSPGKGLQWVAGITYDGSNTYYTDTVRGRFTISRDNARNTVYLQMNSLRAEDTAVYYCVASPLYGTYGFDYWGHGTSVFVSSASTTAPSVTSGQAGQHHHHHHGAYPYDVPDYAS
notes: Canine scFv (VL-linker-VH); also called P3-29
B15: scFv 41 (scFv)
scFv: QPVLTQPPSVSVSLGQTATISCSGESLSKYYAQWFQQKAGQAPVLVIYKDTERPSGIPDRFSGSSSGNTHTLTISGARAEDEADYYCESAVSTETVVFGGGTHLTVLGGGSSRSSSSGGGGSGGGGEVQLVETGGDLVMPAGSLRLSCVASGFTFSSSVMSWVRQAPGKGLEWVAGINGGGSFAAYGDAVKGRFTISRDNAKNTLYLQMNSLRAEDTAMYYCVGGGYMDFWGPGTSLFVSSESPSPPNLTSGQAGQHHHHHHGAYPYDVPDYAS
notes: Canine scFv (VL-linker-VH); also called P3-08A; P3-08B
B16: scFv 29 (scFv)
scFv: QSVLNQPPSVSVSLGQTATISCSGESLNKYYTQWFQQKAGQAPVLVIYKDTERPSGIPDRFSGSSSGNTHTLTISGARAEDEADYYCESVDSTDTYVFGSGTQLTILGGGSSRSSSSGGGGSGGGGEVHLVESGGDLVKPGGSLRLSCVGSGFTFSSYWMSWVRQAPGKGLQWIADISDSGSSTDYADAVKGRFTISRDNAKNTLYLQMNSLRAEDTAMYYCARGLGMDYWGHGTSLFVSSASTTAPSVTSGQAGQHHHHHHGAYPYDVPDYAS
notes: Canine scFv (VL-linker-VH); also called P3-51
B17: scFv 4 (scFv)
scFv: QSVLNQPPSVSGALGQTVTISCSGSHTNIGSGFDVQWYQQLPGKSPQTIIYANINRPSGVPARFSGSKSGSTATLTITGVQAEDEADYYCQSYDDNFDYVFGSGTQLTVLGGGSSRSSSSGGGGSGGGGEEQLVEFGGDLVKPGGSLRLSCVVSGFDFSRYGMSWVRQSPGKGLQWVADISYRGTTFYADDVKGRFTVSRDSAKNTLYLEMTSLTVEDTAVYYCANSANWYVSPFDHWGQGTLVTVSSASTTAPSVTSGQAGQHHHHHHGAYPYDVPDYAS
notes: Canine scFv (VL-linker-VH); also called scFv_04; P3-06
B18: scFv 3 (scFv)
scFv: QSVLNQPPSVSGALGQTVTISCSGSHTNIGSGFDVQWYQQLPGKSPQTLVYANINRPSGVPARFSGSKSGSTATLTITGVQAEDEADYYCQSYDDNFDGHVFGSGTQLTVLGGGSSRSSSSGGGGSGGGGEVQLVQSGGDLVKPGGSLRLSCVASGFTFSNYTMSWVRQAPGQGLQWVAYINYDGSITYYAEAVKGRFTVSRDNAKNTLYLQMNSLRAEDTAVYFCVKETFMIPTEWGQGTLITVSSASTTAPSVTSGQAGQHHHHHHGAYPYDVPDYAS
notes: Canine scFv (VL-linker-VH); also called scFv_03; P3-05
B19: scFv 26 (scFv)
scFv: SSVLTQPPSVSVSLGQTATISCSGESLSKYYTQWFQQKAGQAPILVIYKDTERPSGIPDRFSGSSSGNTHTLTISGARAEDEADYYCESLVDSDAYMFGSGTQLTVLGGGSSRSSSSGGGGSGGGGEVQLVETGGDLVKPGGSLRLSCVGSGFTFSSYWMSWVRQAPGKGLQWIADISDSGSSTDYADAVKGRFTISRDNAKNTLYLQMNSLRAEDTAMYYCARGLGMDYWGHGTSLFVSSASTTAPSVTSGQAGQHHHHHHGAYPYDVPDYAS
notes: Canine scFv (VL-linker-VH); also called P3-03

Target: T1, human CD19 protein with a biotinylated …
Experiment: phage ELISA, biotinylated AviTag CD19 on streptavidin wells; signal ratio to FMC63 standard
Description: To identify unique human CD19-binding monoclonal scFv from the panned libraries, individual phage antibody clones were expanded, assessed for binding to CD19 by ELISA, and subjected to nucleotide sequencing to identify those clones that were unique. A total of 84 scFvs were randomly selected from the panned libraries (70 from P3 and 14 from P4).

| Binder | ELISA hCD19 (ratio FMC63) |
| --- | --- |
| B1 | 0.33 ratio to FMC63 |
| B2 | 0.47 ratio to FMC63 |
| B3 | 0.73 ratio to FMC63 |
| B4 | 0.14 ratio to FMC63 |
| B5 | 0.23 ratio to FMC63 |
| B6 | 0.2 ratio to FMC63 |
| B7 | 0.35 ratio to FMC63 |
| B8 | 0.22 ratio to FMC63 |
| B9 | 0.6 ratio to FMC63 |
| B10 | 0.64 ratio to FMC63 |
| B11 | 0.43 ratio to FMC63 |
| B12 | 0.35 ratio to FMC63 |
| B13 | 0.1 ratio to FMC63 |
| B14 | 0.19 ratio to FMC63 |
| B15 | 0.47 ratio to FMC63 |
| B16 | 0.83 ratio to FMC63 |
| B17 | 0.77 ratio to FMC63 |
| B18 | 0.32 ratio to FMC63 |
| B19 | 0.65 ratio to FMC63 |
